Test results reported in patent US7049398B1, “Melanocortin metallopeptide constructs, combinatorial libraries and applications” (Palatin Technologies, Inc., priority 1999, dated 2006).
Primed or numbered codes have the meaning given here. Where no end group is shown, it is not given here. [ ]: non-standard residue; d: D form. The star is where a group is joined. Phe(2-Cl) = N[C@@H](Cc1ccccc1Cl)C(=O)O; Phe(4-F) = N[C@@H](Cc1ccc(F)cc1)C(=O)O; 2Nal = N[C@@H](Cc1ccc2ccccc2c1)C(=O)O; Hydrocinnamoyl = O=C(CCc1ccccc1)*; hPhe = N[C@@H](CCc1ccccc1)C(=O)O; Tic = O=C(O)[C@@H]1Cc2ccccc2CN1; Aic = NC1(C(=O)O)Cc2ccccc2C1; Phg = N[C@H](C(=O)O)c1ccccc1; 4Abz = Nc1ccc(C(=O)O)cc1; Ac6c = NC1(C(=O)O)CCCCC1; Heptanoyl = CCCCCCC(=O)*; Nle = CCCC[C@H](N)C(=O)O; 2Abz = Nc1ccccc1C(=O)O; Bz′ = not defined here; Ac3c = NC1(C(=O)O)CC1; Inp = O=C(O)C1CCNCC1; Bn = c1ccc(C*)cc1; βAla = NCCC(=O)O

Tests used:
[1] = biological target: T1, hMC4-R (Homo sapiens, UniProt P32245); test: Competitive inhibition binding assay, 125I-NDP-alpha-MSH, hMC4-R membranes; conditions: 0.4 nM 125I-NDP-alpha-MSH
T1 construct: expressed in transfected cells; host or cells: 293 cells
Method: (§1) Representative Peptides of this Invention. Representative peptides of this invention were made using library and synthesis methods described herein, and selected peptides were tested using a binding assay. […] The peptides were synthesized using conventional peptide synthesis methods, and were complexed with rhenium using the methods described herein.
(§2) The competitive inhibition binding assay was conducted using membranes prepared from hMC4-R and B-16 mouse melanoma cells (containing MC1-R) using 0.4 nM ^125I-NDP-alpha-MSH (New England Nuclear, Boston, Mass., USA) in 50 mM HEPES buffer containing 1 mM MgCl2, 2 mM CaCl2, and 5 mM KCl, at pH 7.2. The assay tube also contained a chosen concentration of the test peptide of this invention, complexed to a rhenium metal ion as indicated, for determining its efficacy in inhibiting the binding of ^125I-NDP-alpha-MSH to its receptor. Non-specific binding was measured by complete inhibition of binding of ^125I-NDP-alpha-MSH in the assay with the presence of 1 μM alpha-MSH. Incubation was for 90 minutes at room temperature, after which the assay mixture was filtered and the membranes washed three times with ice cold buffer. The filter was dried and counted in a gamma counter for remaining radioactivity bound to the membranes. 100% specific binding was defined as the difference in radioactivity (cpm) bound to cell membranes in the absence and presence of 1 μM alpha-MSH. The cpm obtained in presence of test compounds were normalized with respect to 100% specific binding to determine the percent inhibition of ^125I-NDP-alpha MSH binding. […]

[2] = biological target: T2, MC1-R (B-16 mouse melanoma cells) (Mus musculus, UniProt Q01727); test: Competitive inhibition binding assay, 125I-NDP-alpha-MSH, B-16 mouse melanoma cell membranes; conditions: 0.4 nM 125I-NDP-alpha-MSH
T2 construct: B-16 mouse melanoma cells (containing MC1-R); endogenous in cells; host or cells: B-16 mouse melanoma cells
Method: as §1, §2

[3] = Conc. cut off 1 μM test peptide
[4] = Conc. cut off 1 μM, hMC4-R membranes
[5] = Conc. cut off 1 μM, B-16 mouse melanoma cell membranes
[6] = Conc. cut off 10 μM, hMC4-R membranes
[7] = Conc. cut off 10 μM, B-16 mouse melanoma cell membranes
[8] = Conc. cut off 10 μM test peptide

T2 sequence (Q01727 whole entry): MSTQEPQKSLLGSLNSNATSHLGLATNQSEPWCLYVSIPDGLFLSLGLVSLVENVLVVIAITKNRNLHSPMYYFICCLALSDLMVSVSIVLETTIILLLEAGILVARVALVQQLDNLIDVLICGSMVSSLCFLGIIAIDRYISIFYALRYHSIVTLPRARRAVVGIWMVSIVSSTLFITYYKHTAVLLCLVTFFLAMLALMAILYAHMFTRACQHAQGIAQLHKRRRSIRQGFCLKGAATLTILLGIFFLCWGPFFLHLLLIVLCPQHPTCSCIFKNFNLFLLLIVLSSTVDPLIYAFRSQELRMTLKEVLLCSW
T1 sequence (P32245 whole entry): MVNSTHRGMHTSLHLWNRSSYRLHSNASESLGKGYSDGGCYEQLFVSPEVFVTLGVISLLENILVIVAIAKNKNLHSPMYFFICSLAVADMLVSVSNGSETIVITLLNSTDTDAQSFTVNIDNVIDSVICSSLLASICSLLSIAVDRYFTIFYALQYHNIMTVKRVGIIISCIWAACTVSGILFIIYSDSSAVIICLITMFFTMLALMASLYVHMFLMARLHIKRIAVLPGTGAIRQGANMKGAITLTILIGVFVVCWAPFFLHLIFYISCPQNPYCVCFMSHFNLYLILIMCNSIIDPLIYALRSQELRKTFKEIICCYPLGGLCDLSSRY

PL-1861 (Ac-FFC[4Abz]K-NH2; also: ReO[V] complex)
% Inhibition MC4-R [1, 3]: −14% | % Inhibition MC1-R (B-16) [2, 3]: 0%

PL-1505 (Ac-RF[2Nal]NCF-NH2; also: ReO[V] complex)
% Inhibition MC4-R [1, 3]: 29% | % Inhibition MC1-R (B-16) [2, 3]: 45%

PL-1412 (FHCW-NH2; also: ReO[V] metal complex)
% Inhibition MC4-R [1, 4]: 54% | % Inhibition MC1-R (B-16) [2, 5]: 43%

PL-1112 (HFCW-NH2; also: ReO complex)
% Inhibition MC4-R [1, 6]: 8% | % Inhibition MC1-R (B-16) [2, 7]: 0%

PL-1094 ([βAla]G[Phe(2-Cl)]CW-NH2; also: ReO complex)
% Inhibition MC4-R [1, 6]: 19% | % Inhibition MC1-R (B-16) [2, 7]: 57%

PL-1405 (Heptanoyl-FHCW-NH2; also: ReO[V] metal complex)
% Inhibition MC4-R [1, 4]: 27% | % Inhibition MC1-R (B-16) [2, 5]: 20%

PL-1510 (Ac-RFFCNAF-NH2; also: ReO[V] metal complex)
% Inhibition MC4-R [1, 3]: 31% | % Inhibition MC1-R (B-16) [2, 3]: 21%

PL-1509 (Ac-RFCFNAF-NH2; also: ReO[V] metal complex)
% Inhibition MC4-R [1, 3]: 30% | % Inhibition MC1-R (B-16) [2, 3]: 19%

PL-814 (Ac-HFCW-NH2; also: ReO[V] metal complex)
% Inhibition MC4-R [1, 4]: 0% | % Inhibition MC1-R (B-16) [2, 5]: −4%

PL-1090 (Ac-AXCW-NH2; not fully specified (residue 2); printed as Ac-L-Ala-L-Tyr(3′,5′ di-I, 4′-Ac)-L-Cys-L-Trp-NH2; also: ReO[V] metal complex)
% Inhibition MC4-R [1, 4]: 10% | % Inhibition MC1-R (B-16) [2, 5]: 2%

PL-1504 (Ac-RF[2Nal]NCF-NH2; also: ReO[V] complex)
% Inhibition MC4-R [1, 3]: 21% | % Inhibition MC1-R (B-16) [2, 3]: 36%

PL-1360 (Ac-RWFCH-NH2; also: ReO[V] metal complex)
% Inhibition MC4-R [1, 6]: 62% | % Inhibition MC1-R (B-16) [2, 7]: 57%

PL-1344 (Heptanoyl-RFHCW-NH2; also: ReO[V] metal complex)
% Inhibition MC4-R [1, 6]: 81% | % Inhibition MC1-R (B-16) [2, 7]: 89%

PL-1655 (Ac-HFRCW-NH2; also: ReO[V] metal complex)
% Inhibition MC4-R [1, 8]: 51% | % Inhibition MC1-R (B-16) [2, 8]: 45%

PL-1110 (KHFCW-NH2; also: ReO complex)
% Inhibition MC4-R [1, 6]: 36% | % Inhibition MC1-R (B-16) [2, 7]: 11%

PL-1089 (Ac-A[Phe(4-F)]CW-NH2; also: ReO complex)
% Inhibition MC4-R [1, 6]: 10% | % Inhibition MC1-R (B-16) [2, 7]: 0%

PL-1478 (Ac-RFFCS-NH2; also: ReO[V] metal complex)
% Inhibition MC4-R [1, 3]: 21% | % Inhibition MC1-R (B-16) [2, 3]: 28%

PL-1095 ([βAla]G[Lys(Z)]CW-NH2; also: ReO complex)
% Inhibition MC4-R [1, 6]: 8% | % Inhibition MC1-R (B-16) [2, 7]: 3%

PL-1859 (Ac-FFC[Tic]K-NH2; also: ReO[V] complex)
% Inhibition MC4-R [1, 3]: −8% | % Inhibition MC1-R (B-16) [2, 3]: 9%

PL-1862 (Ac-FFC[3‑Abz]K-NH2; also: ReO[V] complex)
% Inhibition MC4-R [1, 3]: −7% | % Inhibition MC1-R (B-16) [2, 3]: 17%

PL-1863 (Ac-FFC[2Abz]K-NH2; also: ReO[V] complex)
% Inhibition MC4-R [1, 3]: 6% | % Inhibition MC1-R (B-16) [2, 3]: 19%

PL-809 (Ac-H[hPhe]CW-NH2; also: ReO[V] complex)
% Inhibition MC4-R [1, 4]: 0% | % Inhibition MC1-R (B-16) [2, 5]: −4%

PL-1649 (Ac-HGGCW-NH2; also: ReO[V] metal complex)
% Inhibition MC4-R [1, 8]: 62% | % Inhibition MC1-R (B-16) [2, 8]: 19%

PL-808 (Ac-HWCW-NH2; also: ReO[V] metal complex)
% Inhibition MC4-R [1, 4]: 0% | % Inhibition MC1-R (B-16) [2, 5]: −3%

PL-1606 (Ac-[Nle]RA[Aic]CW-NH2; also: ReO[V] metal complex)
% Inhibition MC4-R [1, 3]: 63% | % Inhibition MC1-R (B-16) [2, 3]: 44%

PL-839 (Ac-HFWC-NH2; also: ReO[V] metal complex)
% Inhibition MC4-R [1, 6]: 9% | % Inhibition MC1-R (B-16) [2, 7]: 12%

PL-1320 (Hydrocinnamoyl-RWC[Nle]-NH2; also: ReO[V] metal complex)
% Inhibition MC4-R [1, 6]: 94% | % Inhibition MC1-R (B-16) [2, 7]: 96%

PL-1860 (Ac-FFC[Inp]K-NH2; also: ReO[V] complex)
% Inhibition MC4-R [1, 3]: 0% | % Inhibition MC1-R (B-16) [2, 3]: 6%

PL-1091 ([βAla]GC(Bn)CW-NH2; also: ReO complex)
% Inhibition MC4-R [1, 4]: 13% | % Inhibition MC1-R (B-16) [2, 5]: −1%

PL-1364 (Ac-WFHCR-NH2; also: ReO[V] metal complex)
% Inhibition MC4-R [1, 6]: 72% | % Inhibition MC1-R (B-16) [2, 7]: 74%

PL-1511 (Ac-RFFNCAF-NH2; also: ReO[V] metal complex)
% Inhibition MC4-R [1, 3]: 26% | % Inhibition MC1-R (B-16) [2, 3]: 21%

PL-810 (Ac-H[2Nal]CW-NH2; also: ReO[V] complex)
% Inhibition MC4-R [1, 4]: −1% | % Inhibition MC1-R (B-16) [2, 5]: −2%

PL-1394 (Ac-HRWCF-NH2; also: ReO[V] metal complex)
% Inhibition MC4-R [1, 4]: 0% | % Inhibition MC4-R [1, 6]: 59% | % Inhibition MC1-R (B-16) [2, 5]: 27% | % Inhibition MC1-R (B-16) [2, 7]: 84%

PL-1315 (Ac-RW[Nle]CF-NH2; also: ReO[V] metal complex)
% Inhibition MC4-R [1, 6]: 70% | % Inhibition MC1-R (B-16) [2, 7]: 69%

PL-1507 (Ac-RFFNCF-NH2; also: ReO[V] metal complex)
% Inhibition MC4-R [1, 3]: 22% | % Inhibition MC1-R (B-16) [2, 3]: 20%

PL-1595 (Ac-[Nle]AH[Aic]RCW-NH2; also: ReO[V] metal complex)
% Inhibition MC4-R [1, 3]: 3% | % Inhibition MC1-R (B-16) [2, 3]: 60%

PL-1636 (Ac-[Nle]AH[Ac3c]RCW-NH2; also: ReO[V] complex)
% Inhibition MC4-R [1, 3]: 38% | % Inhibition MC1-R (B-16) [2, 3]: 20%

PL-1512 (Ac-RFFNACF-NH2; also: ReO[V] metal complex)
% Inhibition MC4-R [1, 3]: 24% | % Inhibition MC1-R (B-16) [2, 3]: 20%

PL-1406 (Heptanoyl-RFHCW-NH2; also: ReO[V] metal complex)
% Inhibition MC4-R [1, 4]: 42% | % Inhibition MC1-R (B-16) [2, 5]: 32%

PL-1926 ({Bz′}-Arg-Trp-Cys-NH2; also: ReO[V] complex)
% Inhibition MC4-R [1, 3]: 7% | % Inhibition MC1-R (B-16) [2, 3]: 25%

PL-1309 (Heptanoyl-CRCW-NH2; cysteine pairing not given here; also: ReO[V] metal complex)
% Inhibition MC4-R [1, 4]: 10% | % Inhibition MC1-R (B-16) [2, 5]: 9%

PL-1096 ([βAla]GLCW-NH2; also: ReO complex)
% Inhibition MC4-R [1, 6]: 12% | % Inhibition MC1-R (B-16) [2, 7]: 6%

PL-1366 (Ac-HFWCR-NH2; also: ReO[V] metal complex)
% Inhibition MC4-R [1, 6]: 64% | % Inhibition MC1-R (B-16) [2, 7]: 78%

PL-844 (Ac-FGCW-NH2; also: ReO[V] metal complex)
% Inhibition MC4-R [1, 6]: 2% | % Inhibition MC1-R (B-16) [2, 7]: 10%

PL-811 (Ac-H[Phg]CW-NH2; also: ReO[V] complex)
% Inhibition MC4-R [1, 4]: 0% | % Inhibition MC1-R (B-16) [2, 5]: −5%

PL-847 (Ac-FHGCW-NH2; also: ReO[V] metal complex)
% Inhibition MC4-R [1, 6]: 6% | % Inhibition MC1-R (B-16) [2, 7]: −6%

PL-1299 (Heptanoyl-[βAla]RCW-NH2; also: ReO[V] metal complex)
% Inhibition MC4-R [1, 4]: 19% | % Inhibition MC1-R (B-16) [2, 5]: 1%

PL-1621 (Ac-[Nle]AH[Ac6c]RCW-NH2; also: ReO[V] complex)
% Inhibition MC4-R [1, 3]: 34% | % Inhibition MC1-R (B-16) [2, 3]: 36%

PL-1334 (Hydrocinnamoyl-[Nle]WCR-NH2; also: ReO[V] metal complex)
% Inhibition MC4-R [1, 4]: 12% | % Inhibition MC1-R (B-16) [2, 5]: 26%
